The target of assay [1] is ZFN with wild-type FokI cleavage domain carrying R487D (DD architecture). Kind of assay: cell-based or functional assay.
Assay [2] deals with ZFN with wild-type FokI cleavage domain carrying the DAMQS interface (DS architecture). Description: cell-based or functional assay.

B1: ZFN with wild-type FokI cleavage domain carrying D483R (RR architecture) (enzyme, part only; not given: zinc finger domain and linker, part only)
chain, part: QLVKSELEEKKSELRHKLKYVPHEYIELIEIARNSTQDRILEMKVMEFFMKVYGYRGKHLGGSRKPDGAIYTVGSPIDYGVIVDTKAYSGGYNLPIGQAREMQRYVEENQTRNKHINPNEWWKVYPSSVTEFKFLFVSGHFKGNYKAQLTRLNHITNCNGAVLSVEELLIGGEMIKAGTLTLEEVRRKFNNGEINF
In the case of B1, the stimulation of mutagenesis in an EGFP reporter cell line (P3/E4 cleavage site), relative to wt (fraction of wt activity) in assay [1] was determined as 0.167; in assay [2], 0.33.

The values above are taken from patent publication US20120329067A1.
